Reference: patent publication US20240254229A1 (Molecular Partners, published 2024)
One block for each binder: values may come before it.

Experiments:
[1] = biological target: T1, Molm-13 N1 tumor cells (carrying CD123, CD33 and CD70) (human, UniProt P20138 18-364; P26951 19-378; P32970 1-193); assay: flow cytometry on Molm-13 N1 cells, 20 uM HSA
T1 construct: whole, on cells; Not a complex: three separate antigens on one cell; also called Molm-13 N1 cells
Method: The determination of binding of several multispecific proteins to tumor cells was performed by Fluorescence Activated Cell Sorting (FACS) flow cytometry. Therefore, tumor cells (Molm-13 N1), were seeded at 100′000 cells per well in a 96 well plate. DARPin® protein #56, DARPin® protein #57, DARPin® protein #58, DARPin® protein #59, DARPin® protein #60, DARPin® protein #61 and DARPin® protein #62 were titrated down starting at 100 nM in 1:5 dilution ratio. Tumor cells were resuspended with diluted DARPin® proteins and incubated 60 minutes at 4° C. The assay was performed in PBS including 2% fetal bovine serum and human serum albumin 20 uM (HSA). After washing twice with Phosphate Buffer saline (PBS), DARPin® protein specific tumor cell binding was detected by adding unlabelled primary […] (anti-rabbit 1-1-1 antibody, CePower) at 2 ug/ml. An incubation step of at least 30 minutes at 4° C. followed. Afterwards, cells were washed with PBS and a secondary anti-rabbit antibody labelled with Alexa Fluor 647 antibody (ThermoFisher) at 2 ug/ml was added. The same incubation conditions applied. Finally, the cells were washed twice and resuspended in Cytofix fixation buffer (BD Biosciences) for 15 min at room temperature (RT). Median fluorescence intensities (MFI) of Alexa Fluor 647 DARPin® labelled cells were measured by Attune NxT (Thermo Fisher) using FlowJo software for analyses and GraphPad Prism 8 for data plotting.

[2] = biological target: T2, extracellular domain of human CD70 (SEQ ID NO: 89), hCD70-Fc-trimer, ACRO Biosystems (human, UniProt P32970 52-193, chemically biotinylated where the biotinylated form was used); assay: SPR (ProteOn), hCD70-Fc-trimer captured on protein A/G chip
T2 construct: also called human CD70-Fc-trimer; Bio.CD70
T2 sequence: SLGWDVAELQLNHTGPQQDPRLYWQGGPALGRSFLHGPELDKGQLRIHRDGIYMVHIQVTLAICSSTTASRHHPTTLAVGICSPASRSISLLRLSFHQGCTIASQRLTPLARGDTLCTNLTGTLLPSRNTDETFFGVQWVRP
Method: Briefly, human target CD70 (SEQ ID NO: 89; hCD70-Fc-trimer, ACRO Biosystems) was diluted in PBST (PBS, pH 7.4 containing 0.005% Tween 20®) and captured on a PAGD200L protein A/G sensorchip (XanTec bioanalytics GmbH) to a level of around 36 resonance units (RU) using a ProteOn (BioRad). The interaction of each tested ankyrin repeat protein and human CD70-Fc-trimer was then measured by injecting 400 μl running buffer (PBS, pH 7.4 containing 0.005% Tween 20®) containing three-fold serial dilutions of ankyrin repeat proteins covering a concentration range between 600 nM and 7.4 nM, followed by a running buffer flow for 2700 seconds at a constant flow rate of 100 μl/min (off-rate measurement). The regeneration was performed using 30 μl of 10 mM glycine pH 2 and hCD70-Fc-trimer was reinjected to prepare the surface for the next measurement. Each interaction was recorded in triplicates. The signals (i.e. resonance unit (RU) values) of the interspots and a reference injection (i.e. injection of running buffer only) were subtracted from the RU traces obtained injecting the ankyrin repeat protein (double-referencing). Dissociation constants (KD) were calculated from the globally fitted on- and off-rates using standard 1:1-Langmuir model.

[3] = biological target: T3, biotinylated extracellular domain of human CD33 (SEQ ID NO: 87), Fc and Avi tagged (human, UniProt P20138 18-259, biotinylated with BirA-GST (Avi tag)); assay: SPR (ProteOn), DARPin immobilized, hCD33 as analyte
T3 construct: also called hCD33; human target hCD33
Method: For measuring the interaction with human CD33, DARPin® protein #56 and DARPin® protein #57 were diluted in 10 mM NaOAc pH 4.0 and immobilized on an NHS/EDC activated HC200M sensorchip (XanTec bioanalytics GmbH) to a level of around 1000 resonance units (RU) (SMA555) or 1400 Rus (PSC466) using a ProteOn (BioRad). The surface was deactivated using Ethanolamine. The interaction of the tested proteins and human target hCD33 (SEQ ID NO:87) was then measured by injecting 400 μl running buffer (PBS, pH 7.4 containing 0.005% Tween 200) containing three-fold serial dilutions of human target hCD33 covering a concentration range between 66.7 nM and 0.82 nM, followed by a running buffer flow for 500 seconds at a constant flow rate of 100 μl/min (off-rate measurement). After each measurement, a 10 min pause was introduced to allow for complete dissociation of the analyte. Each interaction was recorded in triplicates. The signals (i.e. resonance unit (RU) values) of the interspots and a reference injection (i.e. injection of running buffer only) were subtracted from the RU traces obtained injecting human hCD33 (double-referencing). Dissociation constants (KD) were calculated from the globally fitted on- and off-rates using standard 1:1-Langmuir model.

[4] = biological target: T4, human scCD3εγ (scCD3εγ_Avi-Bio) (human, biotin on the C-terminal Avi-tag (in vitro, BirA) where the biotinylated form was used); assay: SPR, set-up not described
T4 construct: Used for all SPR and HTRF results on human CD3; also called recombinant human CD3; human CD3
T4 chain: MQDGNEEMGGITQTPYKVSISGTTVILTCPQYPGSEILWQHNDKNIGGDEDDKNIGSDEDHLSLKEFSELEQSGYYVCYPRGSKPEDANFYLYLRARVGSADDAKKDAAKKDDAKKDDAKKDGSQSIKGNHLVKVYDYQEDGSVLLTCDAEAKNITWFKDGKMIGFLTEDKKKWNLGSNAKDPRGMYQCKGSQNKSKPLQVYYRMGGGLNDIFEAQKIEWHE

human serum albumin = biological target: T5, human serum albumin (human, UniProt P02768 25-609); assay: SPR, set-up not described
T5 construct: also called HSA; SA

[5] = biological target: T6, biotinylated extracellular domain of human CD123 (SEQ ID NO: 88), Fc and Avi tagged (human, UniProt P26951 19-303, biotinylated with BirA-GST (Avi tag)); assay: SPR (Bruker Sierra SPR-32 Pro), hCD123 on IgG capture chip
T6 construct: also called hCD123
T6 sequence: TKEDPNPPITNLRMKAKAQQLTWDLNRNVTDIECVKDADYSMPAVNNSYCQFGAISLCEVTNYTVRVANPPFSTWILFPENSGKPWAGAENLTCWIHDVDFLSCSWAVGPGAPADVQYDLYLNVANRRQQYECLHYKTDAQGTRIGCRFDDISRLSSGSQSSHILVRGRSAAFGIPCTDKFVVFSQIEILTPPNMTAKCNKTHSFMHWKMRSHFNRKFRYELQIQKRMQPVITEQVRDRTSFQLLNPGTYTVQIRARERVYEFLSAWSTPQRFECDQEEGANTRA
Method: The binding affinities of selected multispecific ankyrin repeat proteins on recombinant targets were analyzed using ProteOn (BioRad) and Bruker Sierra SPR-32 Pro instruments. The measurements were performed according to standard procedures known to the person skilled in the art. For that, DARPin® protein #56 and DARPin® protein #57 of the invention were subcloned and expressed as described above into derivatives of the pQE30 (Qiagen) expression vectors, containing an N-terminal His-tag, two human serum album specific binding domains and CD70, CD123 and CD33 specific binding domains, followed by one CD3 specific binding domain.
Similarly, human target_hCD123 (SEQ ID NO: 88) was diluted in PBST (PBS, pH 7.4 containing 0.005% Tween 20®) and captured on a Bruker IgG Capture sensorchip to a level of around 177 resonance units (RU) using a Bruker Sierra SPR-32pro. The interaction of each tested ankyrin repeat protein and target_hCD123 was then measured by injecting 100 μl running buffer (PBS, pH 7.4 containing 0.005% Tween 200) containing three-fold serial dilutions of ankyrin repeat proteins covering a concentration range between 200 nM and 91 pM, followed by a running buffer flow for at least 1500 seconds at a constant flow rate of 25 μl/min (off-rate measurement). […] Each interaction was recorded in triplicates. […]

T1 sequence (P20138 18-364, one chain of several): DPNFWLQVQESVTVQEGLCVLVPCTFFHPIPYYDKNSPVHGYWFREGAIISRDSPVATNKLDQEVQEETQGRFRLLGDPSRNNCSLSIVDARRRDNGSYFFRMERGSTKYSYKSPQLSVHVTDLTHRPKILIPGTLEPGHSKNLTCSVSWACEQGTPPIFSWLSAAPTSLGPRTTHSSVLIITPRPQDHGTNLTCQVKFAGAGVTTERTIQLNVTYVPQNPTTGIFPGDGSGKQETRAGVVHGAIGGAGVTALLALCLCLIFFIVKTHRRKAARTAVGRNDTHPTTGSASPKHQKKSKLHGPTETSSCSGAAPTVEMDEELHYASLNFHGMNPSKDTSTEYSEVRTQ
T3 sequence (P20138 18-259 R69G): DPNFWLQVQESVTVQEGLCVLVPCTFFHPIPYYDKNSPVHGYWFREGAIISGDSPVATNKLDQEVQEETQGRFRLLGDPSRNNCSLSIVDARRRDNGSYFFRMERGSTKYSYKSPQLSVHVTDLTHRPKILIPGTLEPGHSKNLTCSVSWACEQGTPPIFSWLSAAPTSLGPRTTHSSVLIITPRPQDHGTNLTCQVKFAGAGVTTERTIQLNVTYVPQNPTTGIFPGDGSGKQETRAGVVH
T5 sequence (P02768 25-609 limits assumed): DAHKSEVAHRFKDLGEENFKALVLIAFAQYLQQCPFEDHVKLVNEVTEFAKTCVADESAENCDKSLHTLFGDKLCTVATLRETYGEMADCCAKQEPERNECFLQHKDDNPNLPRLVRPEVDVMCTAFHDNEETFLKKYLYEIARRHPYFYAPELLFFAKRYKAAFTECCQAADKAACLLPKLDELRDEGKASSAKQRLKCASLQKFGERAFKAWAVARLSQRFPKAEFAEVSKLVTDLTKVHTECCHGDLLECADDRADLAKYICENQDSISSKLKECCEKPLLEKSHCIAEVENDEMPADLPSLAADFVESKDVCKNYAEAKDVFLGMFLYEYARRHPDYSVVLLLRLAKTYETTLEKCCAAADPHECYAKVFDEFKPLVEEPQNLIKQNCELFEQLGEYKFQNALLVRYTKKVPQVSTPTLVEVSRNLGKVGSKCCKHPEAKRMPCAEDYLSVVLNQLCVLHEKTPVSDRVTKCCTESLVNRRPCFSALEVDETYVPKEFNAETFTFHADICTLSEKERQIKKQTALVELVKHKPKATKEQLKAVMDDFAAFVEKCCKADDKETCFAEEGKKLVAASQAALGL

EC50 [1]: 0.13 nM
Kd [2]: 0.82 nM
Kd [3]: 12 nM
Kd [4]: 29 nM
Kd (human serum albumin): 110 nM
Kd [5]: 0.094 nM
B1: DARPin® protein #57 (designed binder)
chain: DLGKKLLEAARAGQDDEVRELLKAGADVNAKDYFSHTPLHLAARNGHLKIVEVLLKAGADVNAKDFAGKTPLHLAAADGHLEIVEVLLKAGADVNAQDIFGKTPADIAADAGHEDIAEVLQKAAGSPTPTPTTPTPTPTTPTPTPTGSDLGKKLLEAARAGQDDEVRELLKAGADVNAKDYFSHTPLHLAARNGHLKIVEVLLKAGADVNAKDFAGKTPLHLAAADGHLEIVEVLLKAGADVNAQDIFGKTPADIAADAGHEDIAEVLQKAAGSPTPTPTTPTPTPTTPTPTPTGSDLGIKLLTAAYDGQLDEVRILLKAGADVNAKDLRGQTPLHYAAGLGHLEIVEVLLKAGADVNAKDLHGWTPLHLAAWSGHLEIVEVLLKAGADVNAQDVEGVTPADLAAVQGHQDIAEVLQKAAGSPTPTPTTPTPTPTTPTPTPTGSDLGKKLLQAALEGQLDEVRELLKAGADVNAKDIEGYTPLHLAAALGHLEIVEVLLKAGADVNAKDQIGRTPLHLAAYKGHLEIVEVLLKAGADVNAQDIIGQTPADLAAQRGHQDIAEVLQKAAGSPTPTPTTPTPTPTTPTPTPTGSDLGKKLLLAAERGQLDEVRILLKAGADVNAKDRAEGYTPLHIAAYQGHLEIVEVLLKAGADVNAKDRYGKTPLHLAAISGHLEIVEVLLKAGADVNAQDNKGSTPADLAADYGHQDIAEVLQKAAGSPTGSDLGQKLLEAAWAGQDDEVRELLKAGADVNAKNSRGWTPLHTAAQTGHLEIFEVLLKAGADVNAKNDKRVTPLHLAAALGHLEIVEVLLKAGADVNARDSWGTTPADLAAKYGHQDIAEVLQKAA
notes: HSA-HSA-CD70-CD123-CD33-CD3; not shown: N-terminal His-tag

EC50 [1]: 0.26 nM
Kd [2]: 0.61 nM
Kd [3]: 5.1 nM
Kd [4]: 24 nM
Kd (human serum albumin): 120 nM
Kd [5]: 0.056 nM
B2: DARPin® protein #56 (designed binder)
chain: DLGKKLLEAARAGQDDEVRELLKAGADVNAKDYFSHTPLHLAARNGHLKIVEVLLKAGADVNAKDFAGKTPLHLAAADGHLEIVEVLLKAGADVNAQDIFGKTPADIAADAGHEDIAEVLQKAAGSPTPTPTTPTPTPTTPTPTPTGSDLGKKLLEAARAGQDDEVRELLKAGADVNAKDYFSHTPLHLAARNGHLKIVEVLLKAGADVNAKDFAGKTPLHLAAADGHLEIVEVLLKAGADVNAQDIFGKTPADIAADAGHEDIAEVLQKAAGSPTPTPTTPTPTPTTPTPTPTGSDLGVKLLLAAERGQLDEVRILLKAGADVNAKDIAEGYTPLHIAAYQGHLEIVEVLLKAGADVNAKDRYGKTPLHLAAIGGHLEIVEVLLKAGADVNAQDNKGSTPADLAADYGHQDIAEVLQKAAGSPTPTPTTPTPTPTTPTPTPTGSDLGKKLLEAALEGQLDEVRELLKAGADVNAKDQEGYTPLHLAAALGHLEIVEVLLKAGADVNAKDQIGRTPLHLAAYKGHLEIVEVLLKAGADVNAQDIIGQTPADLAAQRGHQDIAEVLQKAAGSPTPTPTTPTPTPTTPTPTPTGSDLGIKLLTAAYDGQLDEVRILLKAGADVNAKDLRGQTPLHYAAGLGHLEIVEVLLKAGADVNAKDLHGWTPLHLAAWSGHLEIVEVLLKAGADVNAQDVEGVTPADLAAVQGHQDIAEVLQKAAGSPTPTPTTPTPTPTTPTPTPTGSDLGQKLLEAAWAGQDDEVRELLKAGADVNAKNSRGWTPLHTAAQTGHLEIFEVLLKAGADVNAKNDKRVTPLHLAAALGHLEIVEVLLKAGADVNARDSWGTTPADLAAKYGHQDIAEVLQKAA
notes: HSA-HSA-CD33-CD123-CD70-CD3; not shown: N-terminal His-tag
